Measurements: patent US20260242478A1 (published 2026)

B1: Phage-1492 (Peptide-92 library clone, SEQ ID NO: 1788) (peptide)
peptide: TCSAGAHFAWPMCF
notes: Tested as clonal phage supernatant; not shown: fused to pIII of the bacteriophage
B2: Phage-1510 (peptide, not shown: large carriers)
peptide: TCAAGAHYEWPMCY
B3: Phage-1513 (peptide, not shown: large carriers)
peptide: TCAAGAHWIWPWCE
B4: Phage-1504 (peptide, not shown: large carriers)
peptide: MCSAGATYPWPYCL
B5: Phage-1505 (peptide, not shown: large carriers)
peptide: LCSAGATYPWPWCM
B6: Phage-1502 (Peptide-92 library clone, SEQ ID NO: 1798) (peptide)
peptide: SCAAGLSYPWPDCL
notes: as for B1
B7: Phage-1468 peptide (Peptide-92 library, SEQ ID NO: 1764) (peptide)
peptide: WCAEFFNYHWPLCF
B8: Phage-1498 (Peptide-92 library clone, SEQ ID NO: 1794) (peptide)
peptide: LCSAGAMYPWPLCY
notes: as for B1
B9: Phage-1491 (Peptide-92 library clone, SEQ ID NO: 1787) (peptide)
peptide: TCSAGAHWTWPLCF
notes: as for B1
B10: Phage-1473 peptide (Peptide-92 library, SEQ ID NO: 1769) (peptide)
peptide: TCAAGAVWEWPMCF
B11: Phage-1511 (peptide, not shown: large carriers)
peptide: SCSAVFSYAWPTCL
B12: Phage-1474 peptide (Peptide-92 library, SEQ ID NO: 1770) (peptide)
peptide: TCAAGANYPWPLCL
B13: Phage-1493 (Peptide-92 library clone, SEQ ID NO: 1789) (peptide)
peptide: SCAAGAHYVWPFCF
notes: as for B1
B14: Phage-1490 (Peptide-92 library clone, SEQ ID NO: 1786) (peptide)
peptide: RCAAGVMYDWPVCL
notes: as for B1
B15: Phage-1471 peptide (Peptide-92 library, SEQ ID NO: 1767) (peptide)
peptide: LCTAGLAYNWPTCL
B16: Phage-1494 (Peptide-92 library clone, SEQ ID NO: 1790) (peptide)
peptide: TCSAGATYNWPWCF
notes: as for B1
B17: Phage-1512 (peptide, not shown: large carriers)
peptide: TCAAGATWPWPSCL
B18: Phage-1497 (Peptide-92 library clone, SEQ ID NO: 1793) (peptide)
peptide: LCNAGAPYKWPTCL
notes: as for B1
B19: Phage-1469 peptide (Peptide-92 library, SEQ ID NO: 1765) (peptide)
peptide: TCSAGFSLQLSICL
B20: Phage-1467 peptide (Peptide-92 library, SEQ ID NO: 1763) (peptide)
peptide: TCAAGAHYPWPYCL
B21: Phage-1470 peptide (Peptide-92 library, SEQ ID NO: 1766) (peptide)
peptide: SCAAGASYPWPQCL
B22: Phage-1503 (Peptide-92 library clone, SEQ ID NO: 1799) (peptide)
peptide: TCAAGAGWAWPFCF
notes: as for B1
B23: Phage-1496 (Peptide-92 library clone, SEQ ID NO: 1792) (peptide)
peptide: WCAAGAMYPWPLCL
notes: as for B1
B24: Phage-1509 (peptide, not shown: large carriers)
peptide: TCSAGANYEWPWCF
B25: Phage-1495 (Peptide-92 library clone, SEQ ID NO: 1791) (peptide)
peptide: TCSAGASYPWPVCL
notes: as for B1
B26: Phage-1472 peptide (Peptide-92 library, SEQ ID NO: 1768) (peptide)
peptide: GCAAGAHYPWPFCL
B27: Phage-1501 (Peptide-92 library clone, SEQ ID NO: 1797) (peptide)
peptide: SCAAGATYTWPMCI
notes: as for B1
B28: Phage-1506 (peptide, not shown: large carriers)
peptide: DCWGDAPYPWRVCL
B29: Phage-1514 (peptide, not shown: large carriers)
peptide: TCAAGAGWQWPMCF
B30: Phage-1499 (Peptide-92 library clone, SEQ ID NO: 1795) (peptide)
peptide: TCAAGAMWVWPTCL
notes: as for B1
B31: Phage-1508 (peptide, not shown: large carriers)
peptide: LCSAGAMYQWPTCL
B32: Phage-1500 (Peptide-92 library clone, SEQ ID NO: 1796) (peptide)
peptide: LCAAGANYPWPACL
notes: as for B1
B33: Phage-1507 (peptide, not shown: large carriers)
peptide: WCTAGFSYKLSICL

How the values were obtained:
[1] = biological target: T1, Anti-CD28 Fab (SEQ ID NOs: 696, 697); experiment: phage ELISA; Fab-coated wells pre-incubated with CD28 antigen as competitor, clonal phage supernatant, anti-M13 HRP detection
T1 construct: In the phage ELISA the Fab was biotinylated and captured on neutravidin coated plates
T1 sequence (VH, as listed by the source, chain 1 of 2): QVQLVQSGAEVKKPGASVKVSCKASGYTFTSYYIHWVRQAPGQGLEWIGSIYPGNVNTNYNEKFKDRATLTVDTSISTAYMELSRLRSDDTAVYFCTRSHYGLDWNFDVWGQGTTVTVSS
T1 sequence (VL, as listed by the source, chain 2 of 2): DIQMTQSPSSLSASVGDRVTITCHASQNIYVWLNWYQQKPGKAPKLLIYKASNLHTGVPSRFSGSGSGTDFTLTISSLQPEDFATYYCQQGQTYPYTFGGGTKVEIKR
Procedure: (§1) Clonal phage were harvested as crude supematants and screened via standard ELISAs. […] Prior to the addition of clonal phage, wells were incubated with blocking buffer and CD28 antigen or blocking buffer alone. Without washing or aspirating, clonal phage supematants were then added to the wells and incubated for a short time. Wells were then washed followed by detection of bound phage using a horse radish conjugated anti-M13 antibody.

[2] = biological target: T1, Anti-CD28 Fab (SEQ ID NOs: 696, 697); experiment: phage ELISA; biotinylated anti-CD28 Fab on neutravidin plate, clonal phage supernatant, anti-M13 HRP detection;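 further: before phage addition, wells were pretreated with either CD28 antigen in blocking buffer or only blocking buffer, and phage was added without an intervening wash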
Procedure: as §1

[3] = biological target: T2, Anti-CD28 Fab (SEQ ID NOs: 696, 697); experiment: phage binding ELISA; clonal phage on biotinylated anti-CD28 Fab captured on neutravidin, anti-M13-HRP detection
T2 construct: Biotinylated and captured on neutravidin coated plates in the phage ELISA
T2 sequence (VH, as listed by the source, chain 1 of 2): as the sequence (VH, as listed by the source, chain 1 of 2) above
T2 sequence (VL, as listed by the source, chain 2 of 2): as the sequence (VL, as listed by the source, chain 2 of 2) above
Procedure: as §1

[4] = biological target: T2, Anti-CD28 Fab (SEQ ID NOs: 696, 697); experiment: phage binding ELISA on captured anti-CD28 Fab; competitor CD28 antigen pre-incubated in the wells
Procedure: as §1

[5] = biological target: Anti-CD28 Fab (SEQ ID NOs: 696, 697); experiment: phage binding ELISA; anti-CD28 Fab on plate pre-incubated with CD28 antigen as competitor
Target sequence in this assay (VH, as listed by the source, chain 1 of 2): as the sequence (VH, as listed by the source, chain 1 of 2) above
Target sequence in this assay (VL, as listed by the source, chain 2 of 2): as the sequence (VL, as listed by the source, chain 2 of 2) above
Procedure: as §1

[6] = biological target: Anti-CD28 Fab (SEQ ID NOs: 696, 697); experiment: phage binding ELISA; biotinylated anti-CD28 Fab on neutravidin plate, clonal phage detected with anti-M13 HRP
Target sequence in this assay (VH, as listed by the source, chain 1 of 2): as the sequence (VH, as listed by the source, chain 1 of 2) above
Target sequence in this assay (VL, as listed by the source, chain 2 of 2): as the sequence (VL, as listed by the source, chain 2 of 2) above
Procedure: as §1

Row | Binder | Phage binding ELISA, Anti-CD28 Fab signal in the presence of CD28 [1] | Phage binding ELISA, Anti-CD28 Fab signal [2] | Anti-CD28 Fab (SEQ ID NOs: 696, 697) signal [3] | Anti-CD28 Fab signal in the presence of CD28 [4] | further results
1 | B1 | 0.07 | 1.69 | – | – | –
2 | B2 | – | – | 1.61 | 0.12 | –
3 | B3 | – | – | 1.61 | 0.07 | –
4 | B4 | – | – | 1.64 | 0.1 | –
5 | B5 | – | – | 1.64 | 0.06 | –
6 | B6 | 0.07 | 1.65 | – | – | –
7 | B7 | – | – | – | – | Anti-CD28 Fab signal in the presence of CD28 [5]: 0.06; Anti-CD28 Fab (SEQ ID NOs: 696, 697) signal [6]: 1.77
8 | B8 | 0.08 | 1.66 | – | – | –
9 | B9 | 0.06 | 1.69 | – | – | –
10 | B10 | – | – | – | – | Anti-CD28 Fab signal in the presence of CD28 [5]: 0.07; Anti-CD28 Fab (SEQ ID NOs: 696, 697) signal [6]: 1.76
11 | B11 | – | – | 1.61 | 0.08 | –
12 | B12 | – | – | – | – | Anti-CD28 Fab signal in the presence of CD28 [5]: 0.08; Anti-CD28 Fab (SEQ ID NOs: 696, 697) signal [6]: 1.75
13 | B13 | 0.08 | 1.68 | – | – | –
14 | B14 | 0.07 | 1.7 | – | – | –
15 | B15 | – | – | – | – | Anti-CD28 Fab signal in the presence of CD28 [5]: 0.05; Anti-CD28 Fab (SEQ ID NOs: 696, 697) signal [6]: 1.77
16 | B16 | 0.05 | 1.68 | – | – | –
17 | B17 | – | – | 1.61 | 0.08 | –

Row | Binder | Phage binding ELISA, Anti-CD28 Fab signal in the presence of CD28 [1] | Phage binding ELISA, Anti-CD28 Fab signal [2] | Anti-CD28 Fab (SEQ ID NOs: 696, 697) signal [3] | Anti-CD28 Fab signal in the presence of CD28 [4] | further results
18 | B18 | 0.07 | 1.66 | – | – | –
19 | B19 | – | – | – | – | Anti-CD28 Fab signal in the presence of CD28 [5]: 0.06; Anti-CD28 Fab (SEQ ID NOs: 696, 697) signal [6]: 1.77
20 | B20 | – | – | – | – | Anti-CD28 Fab signal in the presence of CD28 [5]: 0.05; Anti-CD28 Fab (SEQ ID NOs: 696, 697) signal [6]: 1.77
21 | B21 | – | – | – | – | Anti-CD28 Fab signal in the presence of CD28 [5]: 0.11; Anti-CD28 Fab (SEQ ID NOs: 696, 697) signal [6]: 1.77
22 | B22 | 0.09 | 1.65 | – | – | –
23 | B23 | 0.06 | 1.67 | – | – | –
24 | B24 | – | – | 1.62 | 0.06 | –
25 | B25 | 0.07 | 1.67 | – | – | –
26 | B26 | – | – | – | – | Anti-CD28 Fab signal in the presence of CD28 [5]: 0.06; Anti-CD28 Fab (SEQ ID NOs: 696, 697) signal [6]: 1.76
27 | B27 | 0.07 | 1.66 | – | – | –
28 | B28 | – | – | 1.64 | 0.07 | –
29 | B29 | – | – | 1.6 | 0.11 | –
30 | B30 | 0.07 | 1.66 | – | – | –
31 | B31 | – | – | 1.63 | 0.06 | –
32 | B32 | 0.07 | 1.66 | – | – | –
33 | B33 | – | – | 1.63 | 0.06 | –
